The labels stand for the following.
B1: TGF-beta-activated kinase 1 and MAP3K7-binding protein 3, residues 12 to 50; numbered along this chain, Q8N5C8 (parent)
chain: VLHDLRQRFPEIPEGVVSQCMLQNNNNLEACCRALSQES

± gives the uncertainty stated by the source.

This series covers variants of B1. Description: abundance fitness (aPCA) (normalised: wild type 0, dead -1); higher = more abundant; growth selection in yeast, the domain comes from the species named. As to conditions: Homo sapiens.
Regarding VLRDLRQRFPEIPEGVVSQCMLQNNNNLEACCRALSQES, the abundance fitness worked out at 0.088 ± 0.045.

Regarding VLMDLRQRFPEIPEGVVSQCMLQNNNNLEACCRALSQES, the abundance fitness was -0.023 ± 0.059.

With VLSDLRQRFPEIPEGVVSQCMLQNNNNLEACCRALSQES, the abundance fitness stood at 0.066 ± 0.059.

VLTDLRQRFPEIPEGVVSQCMLQNNNNLEACCRALSQES: the abundance fitness is -0.019 ± 0.045.

As for VLGDLRQRFPEIPEGVVSQCMLQNNNNLEACCRALSQES, the abundance fitness is -0.078 ± 0.043.

In the case of VLYDLRQRFPEIPEGVVSQCMLQNNNNLEACCRALSQES, the abundance fitness was -0.391 ± 0.18.

For the variant VLKDLRQRFPEIPEGVVSQCMLQNNNNLEACCRALSQES, the abundance fitness is 0.09 ± 0.06.

With VLQDLRQRFPEIPEGVVSQCMLQNNNNLEACCRALSQES, the abundance fitness was found to be 0.266 ± 0.047.

On to VLVDLRQRFPEIPEGVVSQCMLQNNNNLEACCRALSQES, for which the abundance fitness is -0.331 ± 0.049.

For VLEDLRQRFPEIPEGVVSQCMLQNNNNLEACCRALSQES, the abundance fitness is 0.201 ± 0.046.

On to VLPDLRQRFPEIPEGVVSQCMLQNNNNLEACCRALSQES, for which the abundance fitness is -0.483 ± 0.061.

Consider VLDDLRQRFPEIPEGVVSQCMLQNNNNLEACCRALSQES, for which the abundance fitness is -0.066 ± 0.094.

In the case of VLIDLRQRFPEIPEGVVSQCMLQNNNNLEACCRALSQES, the abundance fitness was -0.096 ± 0.18.

With VLFDLRQRFPEIPEGVVSQCMLQNNNNLEACCRALSQES, the abundance fitness was -0.342 ± 0.13.

Regarding VLNDLRQRFPEIPEGVVSQCMLQNNNNLEACCRALSQES, the abundance fitness is -0.14 ± 0.24.

In the case of VLCDLRQRFPEIPEGVVSQCMLQNNNNLEACCRALSQES, the abundance fitness is -0.191 ± 0.083.

On to VLHCLRQRFPEIPEGVVSQCMLQNNNNLEACCRALSQES, for which the abundance fitness was -0.053 ± 0.054.

VLHSLRQRFPEIPEGVVSQCMLQNNNNLEACCRALSQES: the abundance fitness is -0.118 ± 0.042.

In the case of VLHTLRQRFPEIPEGVVSQCMLQNNNNLEACCRALSQES, the abundance fitness was 0.02 ± 0.048.

VLHVLRQRFPEIPEGVVSQCMLQNNNNLEACCRALSQES: the abundance fitness was 0.127 ± 0.043.

In the case of VLHGLRQRFPEIPEGVVSQCMLQNNNNLEACCRALSQES, the abundance fitness was -0.676 ± 0.055.

VLHPLRQRFPEIPEGVVSQCMLQNNNNLEACCRALSQES: the abundance fitness was -0.838 ± 0.14.

In the case of VLHQLRQRFPEIPEGVVSQCMLQNNNNLEACCRALSQES, the abundance fitness came out at 0.167 ± 0.052.

Turning to VLHELRQRFPEIPEGVVSQCMLQNNNNLEACCRALSQES, the abundance fitness was 0.248 ± 0.045.

Regarding VLHYLRQRFPEIPEGVVSQCMLQNNNNLEACCRALSQES, the abundance fitness was -0.054 ± 0.18.

VLHFLRQRFPEIPEGVVSQCMLQNNNNLEACCRALSQES: the abundance fitness turned out to be 0.164 ± 0.097.

For VLHWLRQRFPEIPEGVVSQCMLQNNNNLEACCRALSQES, the abundance fitness came to 0.017 ± 0.049.

For the variant VLHNLRQRFPEIPEGVVSQCMLQNNNNLEACCRALSQES, the abundance fitness was -0.075 ± 0.068.

Consider VLHKLRQRFPEIPEGVVSQCMLQNNNNLEACCRALSQES, for which the abundance fitness is 0.109 ± 0.049.

For the variant VLHMLRQRFPEIPEGVVSQCMLQNNNNLEACCRALSQES, the abundance fitness was -0.039 ± 0.14.

Take VLHALRQRFPEIPEGVVSQCMLQNNNNLEACCRALSQES: the abundance fitness worked out at 0.013 ± 0.051.

On to VLHLLRQRFPEIPEGVVSQCMLQNNNNLEACCRALSQES, for which the abundance fitness is 0.116 ± 0.045.

Take VLHRLRQRFPEIPEGVVSQCMLQNNNNLEACCRALSQES: the abundance fitness was -0.112 ± 0.038.

As to VQHDLRQRFPEIPEGVVSQCMLQNNNNLEACCRALSQES, the abundance fitness was -0.276 ± 0.076.

For VRHDLRQRFPEIPEGVVSQCMLQNNNNLEACCRALSQES, the abundance fitness was -0.464 ± 0.047.

For VPHDLRQRFPEIPEGVVSQCMLQNNNNLEACCRALSQES, the abundance fitness is -0.246 ± 0.27.

As to VAHDLRQRFPEIPEGVVSQCMLQNNNNLEACCRALSQES, the abundance fitness is -0.187 ± 0.058.

VHHDLRQRFPEIPEGVVSQCMLQNNNNLEACCRALSQES: the abundance fitness was found to be 0.077 ± 0.1.

Take VEHDLRQRFPEIPEGVVSQCMLQNNNNLEACCRALSQES: the abundance fitness was -0.588 ± 0.15.

VWHDLRQRFPEIPEGVVSQCMLQNNNNLEACCRALSQES: the abundance fitness is -0.134 ± 0.049.

Take VFHDLRQRFPEIPEGVVSQCMLQNNNNLEACCRALSQES: the abundance fitness was found to be 0.211 ± 0.12.

For VSHDLRQRFPEIPEGVVSQCMLQNNNNLEACCRALSQES, the abundance fitness is -0.221 ± 0.12.

Take VVHDLRQRFPEIPEGVVSQCMLQNNNNLEACCRALSQES: the abundance fitness is -0.531 ± 0.065.

For the variant VTHDLRQRFPEIPEGVVSQCMLQNNNNLEACCRALSQES, the abundance fitness was -0.194 ± 0.14.

With VGHDLRQRFPEIPEGVVSQCMLQNNNNLEACCRALSQES, the abundance fitness was -0.583 ± 0.069.

As to VNHDLRQRFPEIPEGVVSQCMLQNNNNLEACCRALSQES, the abundance fitness was -0.058 ± 0.1.

Turning to VIHDLRQRFPEIPEGVVSQCMLQNNNNLEACCRALSQES, the abundance fitness was -0.049 ± 0.07.

Take ELHDLRQRFPEIPEGVVSQCMLQNNNNLEACCRALSQES: the abundance fitness is 0.043 ± 0.055.

Regarding LLHDLRQRFPEIPEGVVSQCMLQNNNNLEACCRALSQES, the abundance fitness is 0.311 ± 0.09.

For the variant FLHDLRQRFPEIPEGVVSQCMLQNNNNLEACCRALSQES, the abundance fitness is -0.228 ± 0.13.

As for MLHDLRQRFPEIPEGVVSQCMLQNNNNLEACCRALSQES, the abundance fitness came out at 0.19 ± 0.065.

As for GLHDLRQRFPEIPEGVVSQCMLQNNNNLEACCRALSQES, the abundance fitness was -0.193 ± 0.056.

Turning to RLHDLRQRFPEIPEGVVSQCMLQNNNNLEACCRALSQES, the abundance fitness is -0.291 ± 0.4.

Consider NLHDLRQRFPEIPEGVVSQCMLQNNNNLEACCRALSQES, for which the abundance fitness stood at 0.252 ± 0.17.

As for WLHDLRQRFPEIPEGVVSQCMLQNNNNLEACCRALSQES, the abundance fitness was -0.361 ± 0.14.

For the variant SLHDLRQRFPEIPEGVVSQCMLQNNNNLEACCRALSQES, the abundance fitness was -0.048 ± 0.12.

As to QLHDLRQRFPEIPEGVVSQCMLQNNNNLEACCRALSQES, the abundance fitness is 0.235 ± 0.29.

In the case of DLHDLRQRFPEIPEGVVSQCMLQNNNNLEACCRALSQES, the abundance fitness was determined as 0.022 ± 0.13.

Consider ALHDLRQRFPEIPEGVVSQCMLQNNNNLEACCRALSQES, for which the abundance fitness was -0.38 ± 0.085.

Turning to VLHDIRQRFPEIPEGVVSQCMLQNNNNLEACCRALSQES, the abundance fitness amounted to 0.286 ± 0.22.

Turning to VLHDERQRFPEIPEGVVSQCMLQNNNNLEACCRALSQES, the abundance fitness was -0.362 ± 0.073.

As for VLHDARQRFPEIPEGVVSQCMLQNNNNLEACCRALSQES, the abundance fitness was -0.905 ± 0.094.

In the case of VLHDHRQRFPEIPEGVVSQCMLQNNNNLEACCRALSQES, the abundance fitness was -0.4 ± 0.34.

On to VLHDDRQRFPEIPEGVVSQCMLQNNNNLEACCRALSQES, for which the abundance fitness is -0.191 ± 0.062.
